The values that follow come from patent EP4722249A1 (AIMED BIO INC., dated 2026).

Assay [1] addresses T1, human CD200R1 on cells (HH, Jurkat-CD200R1, U937-CD200R1) (human) (UniProt Q8TD46).
T1 sequence (looked up): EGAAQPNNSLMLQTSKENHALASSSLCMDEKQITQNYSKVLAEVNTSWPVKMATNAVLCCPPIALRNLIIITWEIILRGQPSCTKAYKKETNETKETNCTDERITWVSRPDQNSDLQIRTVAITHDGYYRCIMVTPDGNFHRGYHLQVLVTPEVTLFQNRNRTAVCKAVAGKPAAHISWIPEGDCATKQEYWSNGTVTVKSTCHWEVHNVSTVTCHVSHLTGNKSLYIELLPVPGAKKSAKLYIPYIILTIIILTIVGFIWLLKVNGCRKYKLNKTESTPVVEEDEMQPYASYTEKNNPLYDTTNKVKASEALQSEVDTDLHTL
Kind of assay: cell-based or functional assay.

Assay [2] deals with T1, human CD200R1 on cells (HH, Jurkat-CD200R1, U937-CD200R1) (human). Kind of assay: flow cytometry, Jurkat-CD200R cells. Background: In flow cytometry, cells or beads pass a laser one at a time.
For assay [3] the target is unchanged. Kind of assay: flow cytometry, HH cells.
Assay [4] has the same target. Kind of assay: flow cytometry, U937-CD200R cells.
The target in assay [5] is T2, human CD200R1 recombinant protein (human) (UniProt Q8TD46).
T2 sequence (looked up): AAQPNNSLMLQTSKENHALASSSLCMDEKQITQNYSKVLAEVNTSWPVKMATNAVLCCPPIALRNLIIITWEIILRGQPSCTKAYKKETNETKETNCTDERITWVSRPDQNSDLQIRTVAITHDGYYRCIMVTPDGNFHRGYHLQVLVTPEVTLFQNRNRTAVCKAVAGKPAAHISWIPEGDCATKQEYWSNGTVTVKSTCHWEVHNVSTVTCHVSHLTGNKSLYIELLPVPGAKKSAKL
Kind of assay: ELISA of hybridoma clones on human CD200R1. Background: An ELISA detects its analyte on a solid surface through an enzyme-linked reagent.

The target in assay [6] is T3, mouse CD200R1 protein (R&D systems, 2554-CD) (mouse, UniProt Q9ES57 26-238).
T3 construct: the same entry is used
T3 sequence (looked up): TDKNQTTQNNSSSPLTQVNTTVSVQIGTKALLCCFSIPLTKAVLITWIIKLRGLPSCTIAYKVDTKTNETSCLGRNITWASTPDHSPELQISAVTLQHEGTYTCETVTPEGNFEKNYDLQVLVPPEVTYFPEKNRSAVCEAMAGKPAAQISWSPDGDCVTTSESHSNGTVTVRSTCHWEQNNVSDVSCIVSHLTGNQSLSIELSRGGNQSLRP
Kind of assay: ELISA on coated mouse CD200R1 protein.

Substitutions are numbered along the chain they refer to. Where only a bound is given, the exact number is not on record here.

As usually defined, the EC50 is the concentration needed to bring the measured effect to its halfway point. Read a high EC50 as a less potent agent.

In the case of “LY3454738 (US 2020/0087395, I-4P, Eli Lilly) (antibody)”, in assay [1], the EC50 (nM), degree of signal transduction by the Dok2 protein, Jurkat-CD200R1 reporter cells was above 10000 nM; the IC50 (nM) of IL-6 suppression, LPS-treated U937-CD200R1 cells came to 1.72 nM; the IC50 (nM) of TNF-α suppression, LPS-treated U937-CD200R1 cells is 6.03 nM; the IL-6 (pg/ml), LPS-treated U937-CD200R1 cells, log [Ab] (M) -7 was determined as 523 pg/ml. In assay [1], this molecule gave an IL-6 (pg/ml), LPS-treated U937-CD200R1 cells, log [Ab] (M) -8 of 1330 pg/ml; an IL-6 (pg/ml), LPS-treated U937-CD200R1 cells, log [Ab] (M) -9 of 2670 pg/ml; an IL-6 (pg/ml), LPS-treated U937-CD200R1 cells, log [Ab] (M) -10 of 3380 pg/ml; an IL-6 (pg/ml), LPS-treated U937-CD200R1 cells, log [Ab] (M) -11 of 3550 pg/ml. In assay [1], this molecule showed an IL-6 (pg/ml), LPS-treated U937-CD200R1 cells, log [Ab] (M) -12 of 4530 pg/ml; an RLU (a.u.), phospho-Dok2 luminescence, Jurkat-CD200R1 reporter cells, antibody dose 0.05 nM of 9260 a.u; an RLU (a.u.), phospho-Dok2 luminescence, Jurkat-CD200R1 reporter cells, antibody dose 0.10 nM of 8400 a.u; an RLU (a.u.), phospho-Dok2 luminescence, Jurkat-CD200R1 reporter cells, antibody dose 0.20 nM of 8000 a.u. Besides, in assay [1], the RLU (a.u.), phospho-Dok2 luminescence, Jurkat-CD200R1 reporter cells, antibody dose 0.39 nM amounted to 8960 a.u; the RLU (a.u.), phospho-Dok2 luminescence, Jurkat-CD200R1 reporter cells, antibody dose 0.78 nM was 8900 a.u; the RLU (a.u.), phospho-Dok2 luminescence, Jurkat-CD200R1 reporter cells, antibody dose 1.56 nM worked out at 9100 a.u; the RLU (a.u.), phospho-Dok2 luminescence, Jurkat-CD200R1 reporter cells, antibody dose 3.13 nM was 9470 a.u. In assay [1], the RLU (a.u.), phospho-Dok2 luminescence, Jurkat-CD200R1 reporter cells, antibody dose 6.25 nM was 8930 a.u; the RLU (a.u.), phospho-Dok2 luminescence, Jurkat-CD200R1 reporter cells, antibody dose 12.5 nM was found to be 13000 a.u; the RLU (a.u.), phospho-Dok2 luminescence, Jurkat-CD200R1 reporter cells, antibody dose 25 nM turned out to be 22700 a.u; the RLU (a.u.), phospho-Dok2 luminescence, Jurkat-CD200R1 reporter cells, antibody dose 50 nM was 25600 a.u. In assay [1], this molecule had a TNF-α (pg/ml), LPS-treated U937-CD200R1 cells, log [Ab] (M) -7 of 472 pg/ml; a TNF-α (pg/ml), LPS-treated U937-CD200R1 cells, log [Ab] (M) -8 of 1040 pg/ml; a TNF-α (pg/ml), LPS-treated U937-CD200R1 cells, log [Ab] (M) -9 of 1480 pg/ml; a TNF-α (pg/ml), LPS-treated U937-CD200R1 cells, log [Ab] (M) -10 of 3760 pg/ml. In assay [1], this molecule showed a TNF-α (pg/ml), LPS-treated U937-CD200R1 cells, log [Ab] (M) -11 of 4950 pg/ml and a TNF-α (pg/ml), LPS-treated U937-CD200R1 cells, log [Ab] (M) -12 of 5490 pg/ml. In assay [2], this molecule displayed a concentration giving a half-maximal response (EC50) of 43.5 nM. In assay [3], the EC50 worked out at 82.7 nM. For the same molecule, the 50% effective concentration (EC50) in assay [4] was 152 nM.

B1: 1H10 (antibody, V domains shown)
VH: QVQLQQPGAELVKPGTSVKLSCKASGYNFTSYWINWVKLRPGQGLEWIGDINPGSGSTNYNEKFRSKATLTVGTSSSTAYMQLSSLASEDSALYYCAREDYYGSRFFYWGQGTLVTVSA
VL: DVVMTQTPLSLPVSLGDQASISCRSSQSLVHSNGNTYLHWYLQKPGQSPKLLIYKVSNRFSGVPDRFSGSGSGTDFTLKISRVEAEDLGVYFCSQSTHVTFGAGTKLELK
Consider B1, for which the ELISA O.D. in assay [5] is above 1.5 O.D.

B2: P001015 (antibody, V domains shown)
VH: EVQLLESGGGLVQPGGSLRLSCAASGFTFSSYDMSWVRQVPGKGLEWVSWISHGGGSIYYADSVKGRFTISRDNSKNTLYLQMNSLRAEDTAVYYCARDAPAYSAPLFDYWGQGTLVTVSS
VL: QSVLTQPPSASGTPGQRVTISCSGSSSNIGNNAVNWYQQLPGTAPKLLIYYDSNRPSGVPDRFSGSKSGTSASLAISGLRSEDEADYYCAAWDDSLSGYVFGGGTKLTVL
Consider B2, for which the binding result in assay [6] was “no binding (tested: up to 300 nM)”.

B3: 1F1 (antibody, V domains shown)
VH: QVQLQQPGAEFVKPGAPVKLSCKASGYTFTSYWMNWVKQRPGRGLEWIGRIDPADSEIHYNQKFKDKATLTVDKSSSTAYIQFSSLTSEDSAVYYCARSGGWLPGFAYWGQGTLVTVSA
VL: ENVLTQSPAIMSASPGEKVTMTCSASSSLIYMHWYQQKSSTSPKLWIYDTSKLASGVPGRFSGSGSGNSYSLTINSMEAEDVATYYCFQGSGYPLMYTFGGGTKLEIK
B3: in assay [5], the ELISA O.D. was above 1.5 O.D.

B4: 6A8 (antibody, V domains shown)
VH: B3 VH with F11L, A54S, I58T, F83L
VL: B3 VL with I30S, H33L, N75S, A83G, Y93N
Consider B4, for which the ELISA O.D. in assay [5] is above 1.5 O.D.

B5: 3G4 (antibody, V domains shown)
VH: B3 VH with F11L, Y27F, F29L, A54S, I58T, F83L, S84T
VL: B3 VL with S26R, L29V, I30S, S40R, N75S, Y93D
Take B5: in assay [5], the ELISA O.D. is above 1.5 O.D.

B6: 6C3 (antibody, V domains shown)
VH: QVQLQQPGAELVRPGASVKLSCKASAYTFTSYWMNWVKQRPEQGLEWIGRIDPYDSETHYNQKFKDKAILTVDKSSSTAYMQLSSLTSEDSAVYYCARVDGNHLFDYWGQGTTLTVSS
VL: DIKMTQSPSSMYASLGERVTITCKASQDINSYLSWFQQKPGKSPKTLIYRANRLVDGVPSRFSGSGSGQDYSLTISSLEYEDMGIYYCLQYDEFPYTFGGGTKLEIK
Turning to B6, in assay [5], the ELISA O.D. is above 1.5 O.D.

B7: 5E9 (antibody, V domains shown)
VH: QVQLQQSGAELARPGASVKLSCKASGYTFTSYWMQWVKQRPGQGLEWIGAIYPGDGDTRYTQKFKGKATLTADKSSSTAYMQLRSLASEDSAVFYCARGGVTTLVPYFFDYWGQGATLTVSS
VL: DVLMTQTPLSLPVSLGDQASISCRSSQSIVHSNGNTYLEWYLQKPGQSPKLLIYKVSNRFSGVPDRFSGSGSGTDFTLKISRVEAEDLGVYYCFQGSHVPPTFGGGTKLEIK
Turning to B7, in assay [5], the ELISA O.D. was above 1.5 O.D.

B8: 6A10 (antibody, V domains shown)
VH: QLQQSGAELVRSGASVKLSCTASGFNIKDYYLHWIKQRPEQGLEWIGWIDPENGDTEYAPKFQGKATMTADTSSNTAYLQLISLTSEDAAVYYCFAGGSYWGQGTSVTVSS
VL: DIVMTQSPSSLSVSAGEKVTMSCKSSQSLLNSGNQKNYLAWYQQKPGQPPKLLIYGASTRESGVPDRFTGSGSGTDFTLTISSVQAEDLAVYYCQNDHSYPYTFGGGTKLEIK
With B8, the ELISA O.D. in assay [5] was above 1.5 O.D.
